Measurements: publication PMC10432269, “Diverse modes of H3K36me3-guided nucleosomal deacetylation by Rpd3S” (Nature, 2023)
Blank lines part the entries; values can stand above or below the binder they belong to. No end group written: not given here.

How the values were obtained:
[1] = target: T1, unmodified histone H3 residues 1–10 peptide; assay: ITC; 25 °C, MicroCal PEAQ-ITC; 20 mM Tris 7.5, 50 mM NaCl, 5% glycerol; one set of binding sites model; details: both partners purified
T1 construct: Histone H3 residues 1-10, unmodified; also called H3_(1–10); H3un; source: synthetic peptide
T1 peptide: ARTKQTARKS

[2] = target: the molecule itself; assay: cryo-EM structure; free Rpd3S complex, subunits co-expressed in Sf9 and purified together; stabilised by GraFix (glycerol gradient with 0.15% glutaraldehyde); 3.2 Å overall, local maps 2.7 Å and 3.2 Å

Kd [1]: ~39 µM
Binder: EDFCSACNQSGSFLCCDTCPKSFHFLCLDPPIDPNNLPKGDWHCNECKFK (domain or fragment, cysteine pairing not given here; also: Zn2+ bound) [PHD1 domain of Rco1]

B1: Rco1 (natural protein, S. cerevisiae, UniProt Q04779 1-684, looked up)
chain: MDTSKKDTTRSPSHSNSSSPSSSSLSSSSSKEKKRPKRLSSQNVNYDLKRRKIITSEGIERSFKNEHSNLAVEDNIPEEEPKELLEKDSKGNIIKLNEPSTISEDSKVSVTGLPLNKGPSEKIKRESLWNYRKNLGGQSNNSEMTLVPSKRFTQVPKNFQDLNRNDLKTFLTENMTEESNIRSTIGWNGDIINRTRDREPESDRDNKKLSNIRTKIILSTNATYDSKSKLFGQNSIKSTSNASEKIFRDKNNSTIDFENEDFCSACNQSGSFLCCDTCPKSFHFLCLDPPIDPNNLPKGDWHCNECKFKIFINNSMATLKKIESNFIKQNNNVKIFAKLLFNIDSHNPKQFQLPNYIKETFPAVKTGSRGQYSDENDKIPLTDRQLFNTSYGQSITKLDSYNPDTHIDSNSGKFLICYKCNQTRLGSWSHPENSRLIMTCDYCQTPWHLDCVPRASFKNLGSKWKCPLHSPTKVYKKIHHCQEDNSVNYKVWKKQRLINKKNQLYYEPLQKIGYQNNGNIQIIPTTSHTDYDFNQDFKITQIDENSIKYDFFDKIYKSKMVQKRKLFQFQESLIDKLVSNGSQNGNSEDNMVKDIASLIYFQVSNNDKSSNNKSASKSNNLRKLWDLKELTNVVVPNELDSIQFNDFSSDEIKHLLYLKKIIESKPKEELLKFLNIENPENQSE
notes: Rco1, S. cerevisiae, full length; residues 107-565 (Rco1-A) and 262-358 (Rco1-B) are modelled in the structure; The complex was captured on strep beads by the Strep-tag of Rco1; the tag was then cleaved with TEV protease before anion exchange and SEC; Two copies (Rco1-A, Rco1-B) stand in the Rpd3S complex; also called Rco1-A; Rco1-B; not shown: Strep-tag, N-terminal, cleaved
binding result [2]: binds
